Assay results reported in US20230050056A1, “METHOD FOR SCREENING PORE-FORMING MEMBRANE PROTEINS, MEMBRANE TR[…] MOLECULAR SWITCHES” (TECHNISCHE UNIVERSITÄT DARMSTADT, priority 2019, published 2023).
Residue numbers refer to the chain shown, from its start.

B1: S^21-68: Wild-type of the S^21-68 pinholin of bacteriophage P21 with pronounced and defined pore-forming properties (protein)
chain: MDKISTGIAYGTSAGSAGYWFLQWLDQVSPSQWAAIGVLGSLVLGFLTYLTNLYFKIREDRRKAARGE
modifications: Bacteriophage P21
B2: T4 holin Wild-type: Wild-type of the T4 pinholin of bacteriophage T4 with highly pronounced pore-forming properties (protein)
chain: MAAPRISFSPSDILFGVLDRLFKDNATGKVLASRVAVVILLFIMAIVWYRGDSFFEYYKQSKYETYSEIIEKERTARFESVALEQLQIVHISSEADFSAVYSFRPKNLNYFVDIIAYEGKLPSTISEKSLGGYPVDKTMDEYTVHLNGRHYYSNLKFAFLPTKKPTPEINYMYSCPYFNLDNIYAGTITMYWYRNDHISNDRLESICAQAARILGRAK
modifications: Bacteriophage T4
B3: Clone P3E5 (protein)
chain: MFQWDKISTGIAYGTSAGSAGYWFLQWLDQVSPSQWAAIGVLGSLVLGFLTYLTNLYFKIREDRRKAARGE
modifications: Mutant of S21-71 anti-pinholin of bacteriophage P21
B4: Clone P15D3 (protein)
chain: B3 chain with F2D, Q3W, W4D
modifications: Mutant of S21-71 anti-pinholin of bacteriophage P21
B5: Clone P3G3 (protein)
chain: B3 chain with F2W, Q3R, W4G
modifications: Mutant of S21-71 anti-pinholin of bacteriophage P21
B6: Clone P14E5 (protein)
chain: B3 chain with F2Y, Q3L, W4E
modifications: Mutant of S21-71 anti-pinholin of bacteriophage P21
B7: Clone P7D10 (protein)
chain: B3 chain with F2A, Q3G
modifications: Mutant of S21-71 anti-pinholin of bacteriophage P21
B8: Clone P14C11 (protein)
chain: B3 chain with F2N, Q3F, W4E
modifications: Mutant of S21-71 anti-pinholin of bacteriophage P21
B9: S^107-M3A (protein)
chain: MKAPEKHDLLAAILAAKEQGIGAILAFAMAYLRGRYNGGAFTKTVIDATMCAIIAWFIRDLLDFAGLSSNLAYITSVFIGYIGTDSIGSLIKRFAAKKAGVEDGRNQ
modifications: Mutant of S107 anti-pinholin of bacteriophage lambda
B10: S^21-71 M4A (protein)
chain: B3 chain with F2K, Q3S, W4A
modifications: Mutant of S21-71 anti-pinholin of bacteriophage P21

Tested on: E. coli
Assay: G-GECO1 single-cell fluorescence microscopy in a microfluidic cultivation chamber (Example 11)
Conditions: not given

B1 was tested. Which “cell division after expression” value did it give?
Its value is “stop quickly”.

What about the “cellular integrity measured at the form of the cells” value of the same molecule?
Its value is “remains intact over a comparatively long period of time”.

How did the “cell division after expression” value turn out when B2 was run?
The value was “stop quickly”.

And the “time window before loss of cellular integrity or outflow of the sensor” value?
Its value is 30 min.

What about the “time within which the fluorescent signal decreases again” value of the same molecule?
Its value is ≤ 30 min.

Same assay, conditions: pCTRL2.T7.100 constructs, 0.5 mM IPTG

B1 was tested. Which “G-GECO1 fluorescent signal after expression” value did it give?
Its value is “increase quickly”.

B2 was tested. Which “G-GECO1 fluorescent signal after expression” value did it give?
The value was “increase quickly”.

Tested on: inner membrane of E. coli
Assay: G-GECO1 fluorescence screening of the 3xNNK S2168 pinholin library in microtiter plates (Example 12)
Conditions: measured at the half-maximum time c; N-terminal variants of S21-71
Procedure: Colonies of BL21(DE3) on LB agar from 3. were picked and cultivated in deep well plates with 300 μl of LB medium with the necessary antibiotics overnight for about 16 h at 37° C. and 1300 rpm.
After cultivating individual clones from 4. overnight, the OD600 of the precultures in microtiter plates was adjusted to 0.1, and the samples, 200 μL each, were shaken at 37° C. and 180 rpm for 30 min. Within the framework of the pCTRL2-^3×NNKS^2168 library, 271 clones were thus picked. Within the framework of the pCTRL2.T7.100.sRBS-^3×NNKS^2168 library, 576 clones were picked.
Subsequently, all nanopore variants were then induced with 0.5 mM IPTG, and the fluorescence was measured over another 190 min.
General information: The measurement in the reader is carried out at 30° C. every 3 min. The plate is shaken at 180 rpm between the measurements. The OD600 and the fluorescence (Ex: 485 nm; Em: 525 nm) are measured. The volume in the cavities is 200 μl after addition of all inductors.
For the analysis, the curves were fitted empirically with equation 1 in order to quantitatively determine the half-maximum time c or the slope d, for example.

Which “Comment: effect on pore formation” value does the source give for B3 here?
Its value is “Inhibitory”.

How did the “Comment: effect on pore formation” value turn out when B4 was run?
The value was “Accelerating”.

With B5 as the molecule, how does the “Comment: effect on pore formation” value read?
Its value is “Inhibitory”.

How did the “Comment: effect on pore formation” value turn out when B6 was run?
Its value is “Accelerating”.

How did the “Comment: effect on pore formation” value turn out when B7 was run?
The value was “Inhibitory”.

How did the “Comment: effect on pore formation” value turn out when B8 was run?
The value was “Accelerating”.

Same assay, conditions: sigmoid fit with equation 1 (high d = low slope); pCTRL2.T7.100.sRBS library, G-GECO1

How did the “Slope [d]” value turn out when B3 was run?
The value was 28.25.

With B4 as the molecule, how does the “Slope [d]” value read?
Its value is 6.727.

B5 was tested. Which “Slope [d]” value did it give?
The value was 47.62.

B6 was tested. Which “Slope [d]” value did it give?
The value was 4.908.

How did the “Slope [d]” value turn out when B7 was run?
The value was 22.49.

B8 was tested. Which “Slope [d]” value did it give?
The value was 6.835.

Same assay, conditions: sigmoid fit with equation 1; pCTRL2.T7.100.sRBS library, G-GECO1, 0.5 mM IPTG

With B3 as the molecule, how does the “Half-maximum time [c]” value read?
The value was 483.1.

How did the “Half-maximum time [c]” value turn out when B4 was run?
The value was 187.4.

How did the “Half-maximum time [c]” value turn out when B5 was run?
Its value is 358.7.

How did the “Half-maximum time [c]” value turn out when B6 was run?
Its value is 166.1.

B7 was tested. Which “Half-maximum time [c]” value did it give?
The value was 304.1.

With B8 as the molecule, how does the “Half-maximum time [c]” value read?
Its value is 172.3.

Tested on: inner membrane of E. coli
Assay: not given
Assay type: cell-based, E. coli BL21(DE3)
Conditions: not given

For “HokB: Pore-forming membrane peptide; forms part of a bacterial efflux or toxin/antitoxin system (MKHNPLVVCLLIICITILTFTLLTRQTLYELRFRDGDKEVAALMACTSR; listed as Escherichia coli)”, which “iGluSNFr fluorescent signal after co-expression (L-Glu outflow)” value (shortened to “iGluSNFr fluorescent signal”) is on record?
The value was “reduction in the fluorescence”.

How did the “iGluSNFr fluorescent signal” value turn out when B9 was run?
Its value is “reduction in the fluorescence”.

Which “iGluSNFr fluorescent signal” value does the source give for B10 here?
The value was “reduction in the fluorescence”.
